The values below come from publication PMC3810412.

T1: delta opioid receptor (Homo sapiens), P41143
T1 chain: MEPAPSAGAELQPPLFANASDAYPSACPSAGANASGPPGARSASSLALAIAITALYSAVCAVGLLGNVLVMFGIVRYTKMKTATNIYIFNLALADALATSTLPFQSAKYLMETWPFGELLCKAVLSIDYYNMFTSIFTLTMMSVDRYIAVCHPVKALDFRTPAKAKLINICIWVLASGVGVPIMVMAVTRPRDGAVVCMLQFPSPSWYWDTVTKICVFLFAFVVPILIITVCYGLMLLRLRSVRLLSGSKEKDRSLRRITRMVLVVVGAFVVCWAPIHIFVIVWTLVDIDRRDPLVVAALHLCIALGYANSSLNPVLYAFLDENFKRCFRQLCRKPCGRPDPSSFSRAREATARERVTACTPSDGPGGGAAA

The experiment has as its target T1, delta opioid receptor (Homo sapiens), …. Put plainly: radioligand competition. The conditions noted are these: modification not given. Background: In a radioligand displacement assay an active substance lowers the binding of a labelled ligand.
For YAGFMW [ligand 7], the Ki worked out at 2.9 nM.

Turning to YAGFMPLW [ligand 5], the Ki turned out to be 13 nM.

For YAGFLW [ligand 8], the inhibition constant (Ki) is 0.6 nM.

In turn, YAGFMALW [ligand 2] yielded an inhibitory constant (Ki) of 25 nM.

As usually defined, the Ki is a measure of affinity in units of concentration, obtained from inhibition or displacement.
